# According to the Human Domainome abundance scans (Beltran et al. 2025):
# ± gives the uncertainty stated by the source.
# B1: Transcriptional regulator ERG, residues 117 to 197; numbered along this chain, P11308 (parent)
# chain: NMTTNERRVIVPADPTLWSTDHVRQWLEWAVKEYGLPDVNILLFQNIDGKELCKMTKDDFQRLTPSYNADILLSHLHYLRE
# Variants of: B1
# Assay: abundance fitness (aPCA) (normalised: wild type 0, dead -1); higher = more abundant; growth selection in yeast, the domain comes from the species named
# Conditions: Homo sapiens
row,Variant,abundance fitness
1,D21L,-0.106 ± 0.04
2,D21M,-0.084 ± 0.057
3,D21S,-0.008 ± 0.042
4,D21A,0.004 ± 0.039
5,D21F,0.024 ± 0.074
6,D21I,-0.035 ± 0.083
7,D21C,-0.09 ± 0.061
8,D21N,-0.113 ± 0.083
9,D21E,0.042 ± 0.04
10,D21G,-0.032 ± 0.032
11,D21K,-0.138 ± 0.054
12,D21Q,-0.087 ± 0.051
13,D21Y,-0.186 ± 0.071
14,D21V,-0.077 ± 0.038
15,D21R,-0.051 ± 0.034
16,D21T,-0.065 ± 0.053
17,D21W,-0.141 ± 0.048
18,D21H,-0.09 ± 0.1
19,L17Q,0.033 ± 0.064
20,L17E,0.093 ± 0.043
21,L17G,0.074 ± 0.037
22,L17C,0.042 ± 0.079
23,L17S,0.122 ± 0.051
24,L17V,0.017 ± 0.043

row,Variant,abundance fitness
1,L17D,0.091 ± 0.064
2,L17N,0.053 ± 0.08
3,L17H,0.045 ± 0.15
4,L17P,-1.08 ± 0.4
5,L17I,-0.002 ± 0.12
6,L17R,0.039 ± 0.038
7,L17T,0.154 ± 0.06
8,L17M,0.046 ± 0.059
9,L17Y,-0.097 ± 0.073
10,L17F,-0.295 ± 0.12
11,L17W,-0.041 ± 0.051
12,H22T,-0.324 ± 0.064
13,H22I,-0.488 ± 0.13
14,H22F,-0.701 ± 0.2
15,H22W,-0.55 ± 0.091
16,H22N,0.074 ± 0.066
17,H22V,-0.198 ± 0.041
18,H22C,-0.229 ± 0.068
19,H22M,-0.033 ± 0.054
20,H22E,0.018 ± 0.047
21,H22Y,-0.672 ± 0.13
22,H22D,-0.014 ± 0.057
23,H22A,-0.286 ± 0.048
24,H22S,-0.357 ± 0.054

row,Variant,abundance fitness
1,H22P,-1.06 ± 0.18
2,H22L,-0.532 ± 0.065
3,H22G,-0.18 ± 0.036
4,R24M,-0.023 ± 0.055
5,R24V,-0.015 ± 0.04
6,R24Y,-0.209 ± 0.097
7,R24H,-0.182 ± 0.11
8,R24I,-0.162 ± 0.1
9,R24W,-0.522 ± 0.076
10,R24G,-0.088 ± 0.037
11,R24F,-0.218 ± 0.14
12,R24C,-0.058 ± 0.071
13,R24D,-0.908 ± 0.24
14,R24N,-0.105 ± 0.13
15,R24L,-0.017 ± 0.044
16,R24K,0 ± 0.056
17,R24E,-0.211 ± 0.053
18,R24Q,0.077 ± 0.059
19,R24T,0.069 ± 0.055
20,R24S,-0.02 ± 0.046
21,R24P,-0.988 ± 0.18
22,Q25K,-0.015 ± 0.052
23,Q25I,-0.001 ± 0.082
24,Q25D,-0.061 ± 0.066

row,Variant,abundance fitness
1,Q25Y,-0.07 ± 0.073
2,Q25N,-0.214 ± 0.076
3,Q25R,-0.003 ± 0.034
4,Q25A,0.03 ± 0.037
5,Q25V,0.01 ± 0.037
6,Q25C,-0.015 ± 0.073
7,Q25G,-0.095 ± 0.034
8,Q25M,0.022 ± 0.059
9,Q25F,-0.072 ± 0.08
10,Q25L,0.064 ± 0.042
11,Q25E,0.022 ± 0.045
12,Q25P,-1 ± 0.2
13,Q25S,-0.05 ± 0.046
14,Q25H,-0.046 ± 0.074
15,T20H,-0.012 ± 0.088
16,T20R,-0.05 ± 0.035
17,T20D,-0.206 ± 0.063
18,T20Q,-0.064 ± 0.052
19,T20S,-0.053 ± 0.047
20,T20N,-0.072 ± 0.068
21,T20G,-0.225 ± 0.035
22,T20Y,-0.276 ± 0.1
23,T20P,0.06 ± 0.058
24,T20L,-0.198 ± 0.05

row,Variant,abundance fitness
1,T20A,0.021 ± 0.039
2,T20I,-0.11 ± 0.08
3,T20M,-0.219 ± 0.071
4,T20W,-0.413 ± 0.061
5,T20F,-0.205 ± 0.11
6,T20E,0.011 ± 0.041
7,S19V,-0.716 ± 0.071
8,S19A,-0.223 ± 0.047
9,S19R,-0.145 ± 0.036
10,S19W,-0.683 ± 0.088
11,S19I,-0.697 ± 0.17
12,S19E,-0.129 ± 0.049
13,S19Q,-0.235 ± 0.07
14,S19F,-0.719 ± 0.23
15,S19G,-0.133 ± 0.033
16,S19H,-0.18 ± 0.1
17,S19Y,-0.798 ± 0.22
18,S19T,-0.073 ± 0.055
19,S19K,-0.065 ± 0.052
20,S19P,-0.994 ± 0.17
21,S19D,-0.014 ± 0.061
22,S19N,-0.008 ± 0.064
23,S19L,-0.565 ± 0.069
24,V23N,-0.475 ± 0.24

row,Variant,abundance fitness
1,V23G,-0.997 ± 0.09
2,V23H,-0.846 ± 0.31
3,V23Q,-1.04 ± 0.24
4,V23P,-0.877 ± 0.2
5,V23R,-1.04 ± 0.13
6,V23T,-0.167 ± 0.066
7,V23A,-0.68 ± 0.077
8,V23Y,-0.905 ± 0.32
9,V23D,-0.781 ± 0.18
10,V23W,-0.798 ± 0.14
11,V23C,-0.328 ± 0.095
12,V23K,-0.991 ± 0.2
13,V23S,-0.761 ± 0.13
14,V23L,-0.874 ± 0.14
15,V23I,-0.5 ± 0.13
16,W18D,-0.923 ± 0.25
17,W18A,-0.676 ± 0.09
18,W18M,-0.635 ± 0.11
19,W18E,-0.885 ± 0.12
20,W18P,-1.17 ± 0.32
21,W18L,-0.979 ± 0.13
22,W18V,-0.937 ± 0.1
23,W18F,-0.886 ± 0.25
24,W18C,-1.04 ± 0.19

row,Variant,abundance fitness
1,W18H,-1.04 ± 0.46
2,W18Q,-0.578 ± 0.19
3,W18Y,-0.738 ± 0.16
4,W18R,-0.785 ± 0.07
5,W18N,-0.994 ± 0.29
6,W18S,-0.864 ± 0.13
7,W18K,-0.625 ± 0.11
8,W18G,-0.895 ± 0.086
9,W26A,-0.886 ± 0.11
10,W26R,-0.808 ± 0.072
11,W26N,-0.657 ± 0.21
12,W26S,-0.76 ± 0.094
13,W26I,-0.942 ± 0.25
14,W26L,-0.658 ± 0.073
15,W26C,-0.982 ± 0.21
16,W26K,-0.785 ± 0.13
17,W26T,-1.34 ± 0.32
18,W26Q,-0.811 ± 0.19
19,W26H,-0.96 ± 0.36
20,W26G,-0.965 ± 0.075
21,W26F,-0.068 ± 0.08
22,W26P,-0.956 ± 0.17
23,W26E,-0.727 ± 0.1
